# Literature values as cited in article PMC10231660.
# Like-named read-outs stand apart in the source and are kept apart here.
# Experiments:
# ZNRF3 (Homo sapiens) [1] = biological target: ZNRF3 (Homo sapiens) (UniProt Q9ULT6)
# [2] = biological target: BMPR1A ECD (Homo sapiens) (UniProt P36894)
# ZNRF3 (Homo sapiens) [3] = biological target: ZNRF3 (Homo sapiens) (UniProt Q9ULT6); remark: listed apart in the source
# ZNRF3 (Homo sapiens) [4] = biological target: ZNRF3 (Homo sapiens) (UniProt Q9ULT6); remark: listed apart in the source
# MC1R = MC1R (UniProt Q01726)
# UniProt Q01726, sequence (Q01726 whole entry): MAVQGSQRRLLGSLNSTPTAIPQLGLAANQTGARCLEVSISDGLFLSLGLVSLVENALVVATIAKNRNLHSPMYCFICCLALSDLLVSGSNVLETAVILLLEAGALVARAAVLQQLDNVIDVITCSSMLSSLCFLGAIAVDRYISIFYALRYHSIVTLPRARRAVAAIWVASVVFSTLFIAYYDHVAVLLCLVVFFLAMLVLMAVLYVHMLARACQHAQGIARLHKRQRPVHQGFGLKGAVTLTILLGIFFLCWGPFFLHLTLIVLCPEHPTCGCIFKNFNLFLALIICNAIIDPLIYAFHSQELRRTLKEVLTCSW
# ZNRF3 (Homo sapiens) [5] = biological target: ZNRF3 (Homo sapiens) (UniProt Q9ULT6); remark: listed apart in the source
# UniProt Q9ULT6, sequence (Q9ULT6 56-219): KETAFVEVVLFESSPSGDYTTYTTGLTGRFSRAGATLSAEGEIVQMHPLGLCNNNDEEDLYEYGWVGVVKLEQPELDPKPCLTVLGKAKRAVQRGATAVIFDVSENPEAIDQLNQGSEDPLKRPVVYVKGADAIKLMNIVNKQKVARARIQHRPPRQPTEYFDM
# UniProt P36894, sequence (P36894 24-152): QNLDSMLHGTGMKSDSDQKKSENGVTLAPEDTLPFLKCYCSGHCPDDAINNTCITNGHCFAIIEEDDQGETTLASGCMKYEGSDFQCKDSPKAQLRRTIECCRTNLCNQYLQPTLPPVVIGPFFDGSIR
substance,measurement,setting,value
RSPO1 FU1 (from UniProt Q2MKA7),Kd,ZNRF3 (Homo sapiens) [1],6.8 µM
RSPO2 (from UniProt Q6UXX9),Kd,[2],0.0048 µM
RSPO3 FU1 (from UniProt Q9BXY4),Kd,ZNRF3 (Homo sapiens) [3],0.06 µM
RSPO4 FU1 (from UniProt Q2I0M5),Kd,ZNRF3 (Homo sapiens) [4],300 µM
ASP CTD (from UniProt P42127),Kd,MC1R,0.001 µM
RSPO2 FU1 (from UniProt Q6UXX9),Kd,ZNRF3 (Homo sapiens) [5],0.025 µM
